These results are taken from US20250346679A1 (INVOX PHARMA, published 2025).

The target in test [1] is T1, human PD-L1, cell-surface (human, UniProt Q9NZQ7 19-290).
T1 construct: also called HEK.hPD-L1; PD-L1 on MDA-MB-231, on Promega PD-L1 cells, on primary human cells
In words: flow cytometry on HEK.hPD-L1. The method, then: (§1) Non-specific binding was also assessed by testing binding to HEK293 parental cells lacking human PD-L1 (Flp-In T-Rex 293 cell line, Life Technologies, R780-07).
(§2) HEK293, HEK.hPD-L1 and HEK.cPD-L1 suspensions were prepared in FACS buffer (DPBS (Gibco, 14190-094) containing 0.5% BSA (Sigma, A7906)) and seeded at 1×10⁵ cell/well in 100 μl in round bottomed 96-well plates (VWR, 734-1797). […] The washed cells were resuspended in the diluted antibody mixture, incubated at 4° C. for 30 minutes, and then washed once in FACS buffer. […] Dead cells were excluded and the fluorescence in the APC channel (638 nm 660/20) was measured. The geometric mean fluorescence intensity (GMFI) values were plotted vs the log concentration of antibody and the resulting curves were fitted using the log (agonist) vs response equation in GraphPad Prism.

In test [2] the target is T1, human PD-L1, cell-surface. In words: cell-based or functional assay.
The target in test [3] is T1, human PD-L1, cell-surface. In words: cell-based or functional assay. The source holds these as a separate data set.
Test [4] addresses T2, cPD-L1-His (Acro Biosystems, PD1-C52H4) (cynomolgus, UniProt Q9NZQ7 19-238 (human entry)).
T2 construct: bought; also called Cyno PD-L1-His; Cynomolgus PD-L1-His; not shown: His tag of the bought product
In words: SPR, antibody captured on Protein A chip, antigen in flow. In general terms: SPR reads the build-up and loss of mass on a sensor chip optically.

Test [5] concerns the target T3, biotinylated hPD-L1-Avi-His (Acro Biosystems, PD1-H82E5) (human, UniProt Q9NZQ7 19-238, biotinylated).
T3 construct: bought; also called Human PD-L1-His; not shown: Avi and His tags of the bought product
The test is described as above.

In test [6] the target is T1, human PD-L1, cell-surface. In words: cell-based or functional assay. The source holds these as a separate data set.
The target of test [7] is T1, human PD-L1, cell-surface. In words: flow cytometry on activated primary human CD4+ T cells; activated primary human CD4+ T cells. The method, then: CD137 is rapidly expressed to high levels on activated CD8⁺ T cells and also on activated CD4⁺ T cells with lower levels (Xue-Zhong Yu et al, 2013), therefore Pan T cells were stimulated for 24 hours using Dynabeads™ Human T-Activator CD3/CD28 beads (Thermo, 11132D) according to manufacturer's instructions.
Dead cells were excluded and the fluorescence in the APC channel (638 nm 660/20) was measured to show test antibody binding. The geometric Mean Fluorescence Intensity (GMFI) values were plotted vs the log concentration of antibody and the resulting curves were fitted using the log (agonist) vs response equation in GraphPad Prism.

The target in test [8] is T4, cynomolgus PD-L1, cell-surface (cynomolgus).
T4 construct: also called HEK.cPD-L1; HEK.cyPD-L1
T4 sequence (chain, as listed by the source limits assumed): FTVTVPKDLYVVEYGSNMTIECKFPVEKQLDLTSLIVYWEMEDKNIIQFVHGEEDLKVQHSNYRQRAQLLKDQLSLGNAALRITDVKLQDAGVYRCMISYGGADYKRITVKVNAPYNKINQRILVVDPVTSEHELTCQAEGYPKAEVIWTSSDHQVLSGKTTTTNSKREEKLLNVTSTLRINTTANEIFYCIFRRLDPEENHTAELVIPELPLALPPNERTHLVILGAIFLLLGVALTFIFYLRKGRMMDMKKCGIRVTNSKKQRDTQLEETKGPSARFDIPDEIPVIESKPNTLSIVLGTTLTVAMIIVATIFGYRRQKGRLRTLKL
In words: flow cytometry on HEK.cPD-L1. The method, then: as §1, §2
On the technique in general: Flow cytometry measures light scatter and fluorescence of single cells or particles in a stream.

Test [9] has as its target T1, human PD-L1, cell-surface. In words: cell-based or functional assay. This is another data set of the same source.
Test [10] has as its target T5, human CD137, cell-surface (human, UniProt Q07011 24-255).
T5 construct: over-expressed on DO11.10 or HEK cells or endogenous on primary T cells, as named under assay; also called DO11.10.hCD137; HEK.FRT.luc.hCD137
In words: flow cytometry on DO11.10.hCD137; DO11.10 cells overexpressing human CD137 (DO11.10.hCD137). The method, then:
(§3) Non-specific binding was also assessed by testing binding to DO11.10 cells lacking CD137 expression.
as §2, with “Briefly, DO11.10, DO11.10.hCD137 or DO11.10.cCD137” for “HEK293, HEK.hPD-L1 and HEK.cPD-L1”, “(DPBS containing” for “(DPBS”

Test [11] concerns the target T6, cynomolgus CD137, cell-surface (cynomolgus, UniProt Q07011 24-255 (human entry)).
T6 construct: also called DO11.10.cCD137; CD137 on cynomolgus T cells
T6 chain: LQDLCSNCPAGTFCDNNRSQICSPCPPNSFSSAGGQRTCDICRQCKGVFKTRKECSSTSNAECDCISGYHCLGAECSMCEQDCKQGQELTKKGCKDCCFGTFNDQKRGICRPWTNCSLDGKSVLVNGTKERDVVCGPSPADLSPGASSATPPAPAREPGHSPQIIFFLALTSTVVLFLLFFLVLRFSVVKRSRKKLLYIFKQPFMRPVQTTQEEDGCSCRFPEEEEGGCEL
In words: flow cytometry on DO11.10.cCD137. The method, then: as §3
as §2, with “Briefly, DO11.10, DO11.10.hCD137 or DO11.10.cCD137” for “HEK293, HEK.hPD-L1 and HEK.cPD-L1”, “(DPBS containing” for “(DPBS”

The target of test [12] is T5, human CD137, cell-surface. In words: cell-based or functional assay.
In test [13] the target is T7, mouse FcRn (R&D systems, 9114-Fc) (mouse, UniProt Q61559 22-297; P01887 21-119, limits assumed).
T7 sequence (looked up) 1: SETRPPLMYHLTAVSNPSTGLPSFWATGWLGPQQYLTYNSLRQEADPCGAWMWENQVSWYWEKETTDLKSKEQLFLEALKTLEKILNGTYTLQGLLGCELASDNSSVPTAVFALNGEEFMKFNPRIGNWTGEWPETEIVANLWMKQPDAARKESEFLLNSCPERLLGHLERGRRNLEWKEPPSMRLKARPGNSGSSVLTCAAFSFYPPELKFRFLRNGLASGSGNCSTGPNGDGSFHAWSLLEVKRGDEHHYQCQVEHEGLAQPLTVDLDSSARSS
T7 sequence (looked up) 2: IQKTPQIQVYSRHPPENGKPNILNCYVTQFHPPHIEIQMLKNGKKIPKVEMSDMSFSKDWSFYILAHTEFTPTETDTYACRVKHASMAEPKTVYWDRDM
In words: SPR, antibody immobilised, FcRn in flow, pH 6.0, steady state affinity; pH 6.0. The text has this: (§4) The neonatal Fc receptor (FcRn) binding is critical for antibody recycling (Martins et al., 2016). […] G1-AA/HeID1.3 was included as an isotype control IgG control lacking mutations in the CH3 domain.
(§5) Briefly, mAb² were individually coated on flow cell 2, 3 and 4 of Series S Sensor Chip CM5 (GE Healthcare, BR100530) to achieve a response of approximately 1000 RU. Flow cell 1 was activated/deactivated but left blank as a reference. Human FcRn (Acro Biosystems, FCM-H5286) or mouse FcRn (R&D systems, 9114-Fc) was dialysed and diluted in MHBS-EP⁺B pH 6.0 or pH 7.4 buffer (10 mM MES, FortéBio, 18-5026; 1×HBS-EP, GE Healthcare, BR100669; 0.1 mg/ml BSA, Sigma, A7906) and injected on flow cell 1, 2, 3 and 4 at 2000-3000 nM with 2-fold dilutions for 1 min at 80 μl/min and then allowed to dissociate in buffer for 3 min. […] Subtracted data (flow cell 2−flow cell 1, flow cell 3−flow cell 1, or flow cell 4−flow cell 1) was analysed using Biacore T200 Evaluation Software 2.0 to identify binding using the model steady state affinity.

The target in test [14] is Human FcRn (Acro Biosystems, FCM-H5286) (human, UniProt P55899 24-297; P61769 21-119). Described as above.
Human FcRn (Acro Biosystems, FCM-H5286), sequence (P55899 24-297 limits assumed, chain 1 of 2): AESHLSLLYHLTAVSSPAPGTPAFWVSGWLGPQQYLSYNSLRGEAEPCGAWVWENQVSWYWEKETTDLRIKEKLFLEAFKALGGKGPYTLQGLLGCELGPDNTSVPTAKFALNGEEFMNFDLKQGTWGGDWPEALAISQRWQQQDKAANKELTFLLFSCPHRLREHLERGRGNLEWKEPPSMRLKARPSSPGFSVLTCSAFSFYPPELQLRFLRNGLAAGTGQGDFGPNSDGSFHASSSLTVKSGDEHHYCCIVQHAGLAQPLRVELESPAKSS
Human FcRn (Acro Biosystems, FCM-H5286), sequence (P61769 21-119 limits assumed, chain 2 of 2): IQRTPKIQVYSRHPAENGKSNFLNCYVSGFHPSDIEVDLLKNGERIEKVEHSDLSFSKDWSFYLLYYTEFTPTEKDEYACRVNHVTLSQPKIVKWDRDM
Description: as §4, §5

T1 sequence (Q9NZQ7 19-290): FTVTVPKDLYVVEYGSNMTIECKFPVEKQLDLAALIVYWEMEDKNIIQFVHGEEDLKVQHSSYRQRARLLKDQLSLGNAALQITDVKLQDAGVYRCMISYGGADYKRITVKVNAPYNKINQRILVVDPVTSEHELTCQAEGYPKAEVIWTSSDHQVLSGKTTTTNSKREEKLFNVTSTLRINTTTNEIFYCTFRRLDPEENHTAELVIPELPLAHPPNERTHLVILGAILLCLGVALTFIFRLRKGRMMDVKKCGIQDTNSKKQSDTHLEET
T2 sequence (Q9NZQ7 other isoform, or with tags, fused parts or gaps): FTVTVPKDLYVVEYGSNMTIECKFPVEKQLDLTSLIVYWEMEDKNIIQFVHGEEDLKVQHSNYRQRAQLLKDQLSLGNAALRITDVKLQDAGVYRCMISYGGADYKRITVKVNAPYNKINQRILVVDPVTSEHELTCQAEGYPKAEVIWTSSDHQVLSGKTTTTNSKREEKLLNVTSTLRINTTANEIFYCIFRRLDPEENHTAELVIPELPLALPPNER
T3 sequence (Q9NZQ7 19-238): as the sequence (Q9NZQ7 other isoform, or with tags, fused parts or gaps) above, with T33A, S34A, N62S, Q68R, R82Q, L173F, A185T, I192T, L215H counted along it

B1: G1-AA/E12v2 (antibody, human IgG1, kappa, L234A L235A, V domains shown)
VH: EVQLVQSGAEVKRPGASVKVSCKASGYPFTSYGISWVRQAPGQGLEWMGWISAYSGGTNYAQKLQGRVTMTTDTSTSTAYMELRSLRSDDTAVYYCARDLFPTIFGVSYYYYWGQGTLVTVSS
VL: DIQMTQSPSTLSASVRDRVIITCRASQSIGNRLAWYQHKPGKAPKLLIYEASTSETGVPSRFSGSGSGTDFTLTISSLQPEDFATYYCQQSYSTPYTFGQGTKLEIKR
notes: anti-PD-L1 IgG1 with LALA
Regarding B1, the values for the EC50 in [1], in test [7] and in test [8] were 3.1 nM, 0.8 nM and 0.6 nM, respectively. In addition, the “EC50 (nM), IFN-γ release, CEFT antigen recall assay (CD4+ T cell activation)” value in [2] came to 0.06 nM. For the same molecule, the “EC50 (nM), mouse IL-2 release, DO11.10 / LK35.2 PD-L1 blockade assay” value in [3] is 1.19 nM. The Kd in [4] was 0.37 nM; in test [5], 0.21 nM. Further, the “EC50 (nM), IFN-γ release, CEF antigen recall assay (CD8+ T cell activation)” value in test [6] was 0.04 nM. The “EC50 (nM), IFN-γ release, human MLR” value in test [9] amounted to 0.08 nM.

B2: FS22-172-003-AA/HeID1.3 (bispecific antibody, human IgG1, kappa, L234A L235A)
heavy: QVQLQESGPGLVRPSQTLSLTCTVSGSTFSGYGVNWVRQPPGRGLEWIGMIWGDGNTDYNSALKSRVTMLVDTSKNQFSLRLSSVTAADTAVYYCARERDYRLDYWGQGSLVTVSSASTKGPSVFPLAPSSKSTSGGTAALGCLVKDYFPEPVTVSWNSGALTSGVHTFPAVLQSSGLYSLSSVVTVPSSSLGTQTYICNVNHKPSNTKVDKKVEPKSCDKTHTCPPCPAPEAAGGPSVFLFPPKPKDTLMISRTPEVTCVVVDVSHEDPEVKFNWYVDGVEVHNAKTKPREEQYNSTYRVVSVLTVLHQDWLNGKEYKCKVSNKALPAPIEKTISKAKGQPREPQVYTLPPSRDELPYIIPPYNQVSLTCLVKGFYPSDIAVEWESNGQPENNYKTTPPVLDSDGSFFLYSKLTVGADRWLEGNVFSCSVMHEALHNHYTQKSLSLSPG
light: DIQMTQSPASLSASVGETVTITCRASGNIHNYLAWYQQKQGKSPQLLVYNAKTLADGVPSRFSGSGSGTQYSLKINSLQPEDFGSYYCQHFWSTPRTFGGGTKLEIKRTVAAPSVFIFPPSDEQLKSGTASVVCLLNNFYPREAKVQWKVDNALQSGNSQESVTEQDSKDSTYSLSSTLTLSKADYEKHKVYACEVTHQGLSSPVTKSFNRGEC
notes: mock mAb^2 with LALA
Turning to B2, the figures for the EC50 in [10] and in test [11] were 6.25 nM and 9.09 nM, respectively. The “Emax (pg/ml), IFN-γ release, human MLR (EC50 N/A)” value in [12] is 3570 pg/mL.

B3: G1-AA/HeID1.3 (antibody, human IgG1, kappa, L234A L235A)
heavy: not shown
light: B2 light
notes: anti-hen egg lysozyme IgG1 with LALA, isotype control
With B3, the Kd in [13] is 160 nM; in test [14] it was 1230 nM.

One may read the EC50 as the concentration at which the effect is half-maximal. Low readings indicate a more potent agent, high ones a less potent agent. What is called Kd is the concentration at which binding is half-saturated.
